Assay: label from the status in PepcDB records

With “MQNMFDGVQLFVEVVEAGGFAKAGKRLSLTRSTIGKAIARLEMRLGVQLFQRTTRVQSLTEDGQQYYERCLRAIKELRAGEAMLEQGRREVAGRLHVSLPVLFGRQCVAPILRTYAREHPQLELELNFSDHHVDLIADGFDLAVRNGPLGNGTTLRARRLGNQRKILCASPTYLAARGKPHTLADLADHDLLTYCRNDRNMAWTLPDATGALVDIPITSRLRCNDLEVIADTAVDGMGVAWLPYWLLMERMQRGELIGIWGDRPSAVIECHVVWPAAQHVPLRSRLAINLLAAELPKYLEA” as the sequence, how does the protein production read?
The protein production was “failed”.

For “MQNPRRICVADPNHRLSQKRFTRNSRDIFICPDCGCIMADVDFDHDQYESGDYYTMQHKTVQSIEEVWGFRWRYILDQILKINGRSSLLDVGAGNGYFVALASREFSFDASGLEISQEEVQFAADVLNIGLIREDLTQHNLDYDVVTCLNVLEHVVDPQLFLSHLVNRVKPGGLLVITTPNPACIHRKVKGLKNWNMIAPPHHINLFTKESLYILLMRYGLIQLDYQTISTYVNFVRGFDTENLLLRRLFFNLLKIFDLGADHFFIVKKPSQC”, which protein production is on record?
Its protein production is “failed”.

Which protein production does the source give for “MQNQYFTVQENYKERFYQIPKVFFTSENYKNLTNDMKIAYAILRDRLNLSIKNSWVDEDGNIYFVYSNEKLMEILNCKKEKLTKIKKGL” here?
Its protein production is “failed”.

With “MQNSIYKQFWKYTIPTVAAMLVNGLYQVVDGIFIGRYVGADGLAGINVAWPVIGSILGIGMMVGVGTGALTSIKQGEQDQQGAKRVLTTGLLFLLALMPIVATILFFFADDFIRWQGAQERVYELGLQYLQILIVACIFSLGSIAVPFLLRNDNSPNLATILMVIGAIINIVLDYVFIAWMNWELTGAAIATALAQMVVTVLGVGYFFSSKAKLRLTFRELKVQLDAIPKIVLIGTSSFFMYAYGSTMVALHNALFAQYGSPLLIGAYAILGYIVTVYYLVAEGIANGMQPLVSYNHGARNQDNIRKLLQIAMGTSVLGGVVFVVLMNLFPYQLVSVFNDADQQLIESAVMGIRLHMFALFMDGFLVVAGAYYQSVNKGSKAMFVTVGNMLIQLPFLFIMPKLLGVTGIWIAFPLSNIALSLVVMSMLWRDIKKLMVDSPVEPSIQAS” as the sequence, how does the protein production read?
The protein production was “not failed”.

With “MQPFLFSDSSACLHVSPAMKISVIIPVYNDPSGIDATLRSVMEQDHSDYEVIPVDNNSTDRTPAVIREWAHQYPNRIRPASEHDTQSSYAARNAGIEAAQGEILVFIDADMAAPSYWLTDVHEAFSASEADYLGYEVDVYVPEDEAGFWGWYDTVMGLPSRYHYDEKQFVPTSCLAVRRAVFEKVGRFDETAVSGGDKEFGERVHRHPDLTTAFRDDIVVCHPARTTFEAHRAKALRVGRGLARLCDPSTASGDTTSVLIELLLHAVPPDPRRVAEQAHDVPAHQFLRLYIADWILRYLRLYGALTYCRKEAPE” as the sequence, how does the protein production read?
The protein production was “failed”.

With “MQPFVYMAAPARIVFSAGSSADVAEEIRRLGLSRALVLSTPQQKGDAEALASRLGRLAAGVFSEAAMHTPVEVTKTAVEAYRAAGADCVVSLGGGSTTGLGKAIALRTDAAQIVIPTTYAGSEVTPILGQTENGVKTTMRGPEILPEVVIYDAELTLGLPVAISMTSGLNAMAHAAEALYARDRNPIASMMAVEGLRAMIEALPVVRQAPHDIGARETALYGAWLCGTVLGAVGMSLHHKLCHTLGGSLDLPHAETHAVLLPHTIAYVEEAAPNLLAPLAALVGGRAGAGLFDFAARLGAPSSLAALGVGADDLDPMAELATANPYWCPRPIEKTAIRDLLQRAFEGARPA” as the sequence, how does the protein production read?
The protein production was “not failed”.

With “MQPRFLGQLGLADVVTVANAALGFIAAAVAVFDTELAARLILLAAIADGLDGVIARFRGGTPVGPILDSLADVASFGVAPAVLVYALASGGEVTLDEPLAVAAVVVAALYVAMAVVRLGFYLLEDDGAPETVGVQTTLAATVLSVLHLAGVTDPAVFVAATAAFAYLMVASITYPELYARDALILGGLQACVVLFPTAFGRAFPRVLLVFALGYLLLAPVAYWRSTEGKRS” as the sequence, how does the protein production read?
The protein production was “failed”.

With “MQPTGNQIQQNQQQQQQLIMRVPKQEVSVSGAARRYVQQAPPNRPPRQNHQNGAIGGKKSSVTIQEVPNNAYLETLNKSGNNKVDDDKLPVFLIKLWNIVEDPNLQSIVHWDDSGASFHISDPYLFGRNVLPHFFKHNNMNSMVRQLNMYGFRKMTPLSQGGLTRTESDQDHLEFSHPCFVQGRPELLSQIKRKQSARTVEDKQVNEQTQQNLEVVMAEMRAMREKAKNMEDKMNKLTKENRDMWTQMGSMRQQHARQQQYFKKLLHFLVSVMQPGLSKRVAKRGVLEIDFCAANGTAGPNSKRARMNSEEGPYKDVCDLLESLQRETQEPFSRRFTNNEGPLISEVTDEFGNSPVGRGSAQDLFGDTFGAQSSRYSDGGATSSREQSPHPIISQPQSNSAGAHGANEQKPDDMYMGSGPLTHENIHRGISALKRDYQGASPASGGPSTSSSAPSGAGAGARMAQKRAAPYKNATRQMAQPQQDYSGGFVNNYSGFMPSDPSMIPYQPSHQYLQPHQKLMAIEDQHHPTTSTSSTNADPHQNLYSPTLGLSPSFDRQLSQELQEYFTGTDTSLESFRDLVSNHNWDDFGNNVPLDDDEEGSEDPLRQLALENAPETSNYDGAEDLLFDNEQQYPENGFDVPDPNYLPLADEEIFPHSPALRTPSPSDPNLV” as the sequence, how does the protein production read?
Its protein production is “not failed”.

For “MQRANREHLEIISLEEISMLVSSDFDLPEVLQHVTAKVATQLKVSVCNIYLREGDEVVLAATHGFDPAFIGKIRIKIGDGITGSVARDGQYISLSRASQDPRYRYFPELQEEKYNSMLSFPIGDKKEVYGVINLNTTSIRSFHEDEIYFVSIIANLILTAIKLRQQVASSRKAAEA”, which protein production is on record?
The protein production was “not failed”.

Which protein production does the source give for “MQRCLRIQVARRHKLRNGKILDLGQQPTAPLLSLYLSTAQSRVISNEEPASISWSCAEAGSALGLSSASGSAEEAEPWPGVRRGTEAGQYEFARAGEAAAAVRAAAAVAVARAGMRRYLRVVGLCLACGFCSLLYAFSQLAVSLEEGAAVGRRPQAAVASWLADGGRGTGRGAGSAGPGRTGRCKEVSLSYWNPYWMLPSDVCGVNCFWEAAFRYGLKTRPTEKMHLAVVACGDRLEETVTMLKSALIFSIKPLHVHIFAEDQLHDSFKDRLDSWSFLQRFNYSLYPITFPSDSAMEWKKLFKPCASQRLFLPLILKGVDSLLYVDTDVLFLRPVDDIWSLLERFNSTQIAAMAPEHEEPRVGWYNRFARHPYYGRTGVNSGVMLMNMTRMRRKYFKNDMTTARLQWGDILMPLLKKYKLNITWGDQDLLNIMFYHNPESLFVFPCQWNYRPDHCIYGSNCREAEEEGVFILHGNRGVYHDDKQPAFRAMYEALRNCSLEDDSVRSLLKPLELELQKTVHTYCGKTYKIFIKQLAKSIRNRYDTPPKER” here?
The protein production was “failed”.

For “MQRFALIGAGFIGGVHGDNLAAHPDVDLALVFDIDLARATDLAKRHGSRATTDLAEVFDPTAIDAVFIASSSNTHAEHLRAAATAGIPALCEKPIDLDLAHAVDIVRFAETRSLRAMVDFNRRFDRDYAELQRVVASGEIGSVELIQMTSRGPAMPPLEYIAVSGGQMRDQTVHFFDLARWISGLDPESVFATGSTLAEPRLAEYGDVDTSAVTLRLPGGALVQIDCTRRIGYGYDERIEVLGSTGMVEARRQRAGSVSRYSAGRVVDDGLHAGWFERIRGSYRTALDHFVDALENGAAIGPTLAEGLKAQAIAEAATRSLTSGRMEPIEYPA”, which protein production is on record?
The protein production was “failed”.

With “MQRTLDITQAMIDGYGRINGDNDIIHYDHDYAVQRGFRGTLLHGPHMTALAADLGARRYASDWLYRGKLHTKWIGPVCPGDTFVAALNEQGEIEAVSGGKTVMVGSASLAD” as the sequence, how does the protein production read?
The protein production was “failed”.

For “MQRVAQWAADVPEETLNLLELSQVAGVSLRQLQSAFKAFTGMAPSQWLRLRRLNSAHRELLSRGPTETTVAEVAMHWSFWHLGRFSSSYRALFKELPSQTLKRSAVARR”, which protein production is on record?
Its protein production is “failed”.

With “MQSAYSFLPQVIAHRGSSGQAPENTLASLHLAGQQGIKWVEIDVMLSGDGIPVIFHDDYLSRTTDGDGLIYKTPLAELKQLDAGSWKGQEYQQETIPTLLEAIEVISQYGMGLNLELKPCEGLEEETIAASVEVLKQHWPQDLPLLFSSFNYFALVSAKALWPEIARGYNVSAIPSAWQERLEHLDCAGLHIHQSFFDVQQVSDIKAAGYKVLAFTINDESLALKLYNQGLDAVFSDYPQKIQSAIDSHIN” as the sequence, how does the protein production read?
Its protein production is “not failed”.

With “MQSLGSLAKNIKPNQNIVEEEHNLKCERCGNTYDYYKFSNGKEFRHGCDCSMIAAGKEAEQQRKQKYLNRIFNQSNVNASLRDATVNSYQPQNDHQVHAKSTAIEYVKGFSVDKPKSLILQGSYGTGKSHLAYAVAKAIKQQGYSVAFMHIPMLMERIKATYNRNATETTDELVQLLSSIDLLVLDDVGVENTEHTLNKLFSIVDNRVGKNNIFTTNFSDKELNQNMNWQRINSRMKQNARTVRVLGDDFRGRDAW” as the sequence, how does the protein production read?
The protein production was “failed”.

Which protein production does the source give for “MQSSAVFPLSPLIPLLQQRRLSLRHHPITAASSSDLNMSPNKPTPYVLSAIVPIVGGVALASISEVSFNWAGFSSAMASNLTNQSPNNYIFEF” here?
Its protein production is “failed”.
